Experimental data: PMC4304843, “Human Mitochondrial Hsp70 (Mortalin): Shedding Light on ATPase Activity, Interaction with Adenosine Nucleotides, Solution Structure and Domain Organization” (PLoS ONE, 2015)

Experiments:
[1] = biological target: Human mitochondrial Hsp70 (mortalin), recombinant (human) (UniProt P38646); assay: SEC; analytical SEC (Superdex 200 GL 10/30, TKP buffer pH 7.5) of mortalin directly after Ni2+ affinity chromatography
[2] = tested on: T1, Nc1ncnc2c1ncn2[C@@H]1O[C@H](COP(=O)(O)OP(=O)(O)OP(=O)(O)O)[C@@H](O)[C@H]1O; assay: ATPase, EnzChek phosphate assay, Michaelis-Menten fit; assay type: biochemical, Homo sapiens; conditions: TKP buffer without phosphate pH 7.5, 2 mM Mg2+, 37°C, no co-chaperone
T1 construct: monomeric SEC fraction, alkaline phosphatase treated
Text: ATPase, EnzChek phosphate assay, Michaelis-Menten fit on human mortalin (mtHsp70, GRP75, HspA9, PBP74)

Chain of human mortalin (mtHsp70, GRP75, HspA9, PBP74) (Homo sapiens) (chain, as listed by the source): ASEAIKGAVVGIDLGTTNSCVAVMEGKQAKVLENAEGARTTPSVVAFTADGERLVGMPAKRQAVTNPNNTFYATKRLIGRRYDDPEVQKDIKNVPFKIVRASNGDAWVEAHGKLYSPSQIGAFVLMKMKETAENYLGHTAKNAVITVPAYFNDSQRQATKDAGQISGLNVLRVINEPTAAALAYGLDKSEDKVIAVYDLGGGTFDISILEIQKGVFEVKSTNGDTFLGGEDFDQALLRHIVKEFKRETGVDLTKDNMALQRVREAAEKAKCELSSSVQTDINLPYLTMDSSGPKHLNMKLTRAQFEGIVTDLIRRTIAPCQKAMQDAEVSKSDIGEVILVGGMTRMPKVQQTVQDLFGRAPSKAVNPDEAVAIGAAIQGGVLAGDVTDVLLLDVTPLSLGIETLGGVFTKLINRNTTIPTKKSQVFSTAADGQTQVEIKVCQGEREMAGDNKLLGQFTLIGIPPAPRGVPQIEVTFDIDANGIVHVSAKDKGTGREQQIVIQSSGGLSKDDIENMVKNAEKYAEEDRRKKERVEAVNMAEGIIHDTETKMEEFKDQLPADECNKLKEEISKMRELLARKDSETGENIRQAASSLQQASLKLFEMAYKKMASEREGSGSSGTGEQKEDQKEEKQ

Human mitochondrial Hsp70 (mortalin), recombinant (from UniProt P38646 47-679) (natural protein)
stoichiometry N [1]: 2

human mortalin (mtHsp70, GRP75, HspA9, PBP74) (Homo sapiens)
Km [2]: 190 ± 20 µmol/L | kcat [2]: 0.00252 ± 3.33e-05 s⁻¹
